Experimental data: paper PMC10794152 (2023)

B2: full-length human basigin (receptor)
chain: AAGTVFTTVEDLGSKILLTCSLNDSATEVTGHRWLKGGVVLKEDALPGQKTEFKVDSDDQWGEYSCVFLPEPMGTANIQLHGPPRVKAVKSSEHINEGETAMLVCKSESVPPVTDWAWYKITDSEDKALMNGSESRFFVSSSQGRSELHIENLNMEADPGQYRCNGTSSKGSDQAIITLRVRSHLAALWPFLGIVAEVLVLVTIIFIYEKRRKPEDVLDDDDAGSAPLKSSGQHQNDKGKNVRQRNSS
modifications: labelled with Alexa Fluor 488 (protein-labelling kit)
B4: basigin ectodomain (domain or fragment)
chain: AAGTVFTTVEDLGSKILLTCSLNDSATEVTGHRWLKGGVVLKEDALPGQKTEFKVDSDDQWGEYSCVFLPEPMGTANIQLHGPPRVKAVKSSEHINEGETAMLVCKSESVPPVTDWAWYKITDSEDKALMNGSESRFFVSSSQGRSELHIENLNMEADPGQYRCNGTSSKGSDQAIITLRVRSHLAAL
modifications: labelled with Alexa Fluor 488 (protein-labelling kit)

Key:
[1] = molecular target: B2; assay: MST; replicate 2
[2] = molecular target: B4; assay: MST; replicate 2
[3] = molecular target: T1, PfRCR complex (P. falciparum, UniProt Q8IFM8;O97302); assay: MST; replicate 1
[4] = molecular target: T1, PfRCR complex; assay: MST; replicate 2
[5] = molecular target: T2, PfRIPR (P. falciparum, UniProt O97302 21-1086); assay: SPR; replicate 4
[6] = molecular target: T3, PfRIPR tail (P. falciparum, UniProt O97302 717-1086, N964Q | N1021Q); assay: SPR; replicate 4
[7] = molecular target: T3, PfRIPR tail; assay: SPR; replicate 2
[8] = molecular target: T2, PfRIPR; assay: SPR; replicate 1
[9] = molecular target: T3, PfRIPR tail; assay: SPR; replicate 1

B1: PfRH5 (natural protein)
chain: ENAIKKTKNQENNLTLLPIKSTEEEKDDIKNGKDIKKEIDNDKENIKTNNAKDHSTYIKSYLNTNVNDGLKYLFIPSHNSFIKKYSVFNQINDGMLLNEKNDVKNNEDYKNVDYKNVNFLQYHFKELSNYNIANSIDILQEKEGHLDFVIIPHYTFLDYYKHLSYNSIYHKSSTYGKYIAVDAFIKKINEAYDKVKSKCNDIKNDLIATIKKLEHPYDINNKNDDSYRYDISEEIDDKSEETDDETEEVEDSIQDTDSNHTPSNKKKNDLMNRAFKKMMDEYNTKKKKLIKCIKNHENDFNKICMDMKNYGTNLFEQLSCYNNNFCNTNGIRYHYDEYIHKLILSVKSKNLNKDLSDMTNILQQSELLLTNLNKKMGSYIYIDTIKFIHKEMKHIFNRIEYHTKIINDKTKIIQDKIKLNIWRTFQKDELLKRILDMSNEYSLFITSDHLRQMLYNTFYSKEKHLNNIFHHLIYVLQMKFNDVPIKMEYFQTYKKNKPLTQ
Kd [1]: 171 nM | Kd [2]: 151 nM

B2
Kd [3]: 149 nM | Kd [4]: 181 nM

B3: PfCSS–PfPTRAMP heterodimer (complex)
chain 1: QDEKSVKNICVCDFTDKLNFLPLEKTKILCELKPQYGEDIKIIANKEYEINCMNNSKVFCPLKDTFINNTNIKLYSPKLHFEIKDITHKGKNAALYYLKIDEEASDIFFSCSIKPKQVSGLLEGEVRVNLKKHINEEYSIFNEEEDVHVCDFSKGNLDITPSAGFYLKNSRNVSCIYRVIPNKLFLIKLPKLDIVTEKLLPSIVNCLSEFSFINFTLKHVQEGDNYISFNVIFGEFKKHFNLTCSLDLSDFQQEPCNLGKTANITFIFSK
chain 2: CNLKVRNNWEHFLQVYQNNGNFKMEILEPECTIQKNLPSEEEKEEFIDFDRKELLLHDFVVIKNSQFTDEKTLELYLSKEENNKSYLMLTFYLGDLKLMIGHNSPYEISLILNVATVNKNMSNCKNNSYNIVLLKTTDVFNTSDLEILEGPIQFSLGKSSGAFRINVTNFFLNNTWKAFTKDKISFLIKPEENCYTILENKINKPQLLIEKKTTFYSEWGEWSNCSMDCDHPDNVQIRERECIHPSGDCFKGDLKESRPCIIPLPPCNELFSHKDNST
Kd [5]: 4.32 µM | Kd [6]: 4.9 µM | Kd [7]: 5.37 µM | Kd [8]: 2970 nM | Kd [9]: 2790 nM

B4
Kd [3]: 125 nM | Kd [4]: 184 nM
